# Measured values as given in US20220112296A1 (Chugai, published 2022).
# Target: human CD137 (4-1BB) on cells (human, UniProt Q07011 24-255)
# Test: cell-based or functional assay
# human CD137 (4-1BB) on cells, sequence (Q07011 24-255): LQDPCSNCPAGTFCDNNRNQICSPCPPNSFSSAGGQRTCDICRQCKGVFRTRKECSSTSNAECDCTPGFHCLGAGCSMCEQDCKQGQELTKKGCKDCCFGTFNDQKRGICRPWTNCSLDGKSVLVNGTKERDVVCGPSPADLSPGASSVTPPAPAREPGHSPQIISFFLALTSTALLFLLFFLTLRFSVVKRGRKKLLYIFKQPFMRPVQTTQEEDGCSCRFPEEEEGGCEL
Binder,"Agonistic activity compared to B, 6 ug/mL","Agonistic activity compared to B, 30 ug/mL","Agonistic activity compared to Ctrl, 6 ug/mL","Agonistic activity compared to Ctrl, 30 ug/mL","hIL-6 (pg/mL), 6 ug/mL antibody","hIL-6 (pg/mL), 30 ug/mL antibody"
"GPC3 ERY22-dBBDu_186/L096 (bispecific antibody, human IgG1, kappa, L234A L235A, N297A) heavy 1: DIVMTQSPLSLPVTPGEPASISCRSSQSLVHSNRNTYLHWYQQKPGQAPRLLIYKVSNRFSGVPDRFSGSGSGTDFTLKISRVEAEDVGVYYCSQNTHVPPTFGQGTKLEIKSSASTKGPSVFPLAPSSKSTSGGTAALGCLVKDYFPEPVTVSWNSGALTSGVHTFPAVLQSSGLYSLSSVVTVPSSSLGTQTYICNVNHKPSNTKVDKKVEPKSCDKTHTCPPCPAPEAAGGPSVFLFPPKPKDTLMISRTPEVTCVVVDVSHEDPEVKFNWYVDGVEVHNAKTKPREEQYASTYRVVSVLTVLHQDWLNGKEYKCKVSNKALPAPIEKTISKAKGQPREPQVCTLPPSRDELTKNQVSLWCLVKGFYPSDIAVEWESNGQPENNYKTTPPVLDSDGSFFLYSKLTVDKSRWQQGNVFSCSVMHEALHNHYTQKSLSLSPHHHHHHHH light 1: QVQLVQSGAEVKKPGASVKVSCKASGYTFTDYEMHWIRQPPGQGLEWIGAIDPKTGDTAYSQKFKGRVTLTADKSTSTAYMELSSLTSEDTAVYYCTRFYSYTYWGQGTLVTVSSASVAAPSVFIFPPSDEQLKSGTASVVCLLNNFYPREAKVQWKVDNALQSGNSQESVTEQDSKDSTYSLSSTLTLSKADYEKHKVYACEVTHQGLSSPVTKSFNRGEC heavy 2: QVQLVESGGGLVQPGRSLRLSCAASGFTFSNAWMHWVRQAPGKGLEWVAQIKDRSNQYATYYAPSVKGRFTISRDDSKNSIYLQMNSLKTEDTAVYYCHYVHYAQASTVLPAFGVDAWGQGTTVTVSSASTKGPSVFPLAPSSKSTSGGTAALGCLVKDYFPEPVTVSWNSGALTSGVHTFPAVLQSSGLYSLSSVVTVPSSSLGTQTYICNVNHKPSNTKVDKKVEPKSCDKTHTCPPCPAPEAAGGPSVFLFPPKPKDTLMISRTPEVTCVVVDVSHEDPEVKFNWYVDGVEVHNAKTKPREEQYASTYRVVSVLTVLHQDWLNGKEYKCKVSNKALPAPIEKTISKAKGQPREPQVYTLPPSRCELTKNQVSLSCAVKGFYPSDIAVEWESNGQPENNYKTTPPVLDSDGSFFLVSKLTVDKSRWQQGNVFSCSVMHEALHNHYTQKSLSLSPDYKDDDDK light 2: DIVMTQSPLSLPVTPGEPASISCRTSQELVHINRYIFLHWYQQKPGQAPRLLIYKVYNRFQGVPDRFSGSGSGTDFTLKISRVEAEDVGVYYCAQGTSVPYTFGQGTKLEIKRTVAAPSVFIFPPSDEQLKSGTASVVCLLNNFYPREAKVQWKVDNALQSGNSQESVTEQDSKDSTYSLSSTLTLSKADYEKHKVYACEVTHQGLSSPVTKSFNRGEC",19%,24.2%,66.1%,91.7%,1680 pg/mL,1740 pg/mL
"GPC3 ERY22-dBBDu_186/L106 (bispecific antibody, human IgG1, kappa, L234A L235A, N297A) heavy 1: DIVMTQSPLSLPVTPGEPASISCRSSQSLVHSNRNTYLHWYQQKPGQAPRLLIYKVSNRFSGVPDRFSGSGSGTDFTLKISRVEAEDVGVYYCSQNTHVPPTFGQGTKLEIKSSASTKGPSVFPLAPSSKSTSGGTAALGCLVKDYFPEPVTVSWNSGALTSGVHTFPAVLQSSGLYSLSSVVTVPSSSLGTQTYICNVNHKPSNTKVDKKVEPKSCDKTHTCPPCPAPEAAGGPSVFLFPPKPKDTLMISRTPEVTCVVVDVSHEDPEVKFNWYVDGVEVHNAKTKPREEQYASTYRVVSVLTVLHQDWLNGKEYKCKVSNKALPAPIEKTISKAKGQPREPQVCTLPPSRDELTKNQVSLWCLVKGFYPSDIAVEWESNGQPENNYKTTPPVLDSDGSFFLYSKLTVDKSRWQQGNVFSCSVMHEALHNHYTQKSLSLSPHHHHHHHH light 1: QVQLVQSGAEVKKPGASVKVSCKASGYTFTDYEMHWIRQPPGQGLEWIGAIDPKTGDTAYSQKFKGRVTLTADKSTSTAYMELSSLTSEDTAVYYCTRFYSYTYWGQGTLVTVSSASVAAPSVFIFPPSDEQLKSGTASVVCLLNNFYPREAKVQWKVDNALQSGNSQESVTEQDSKDSTYSLSSTLTLSKADYEKHKVYACEVTHQGLSSPVTKSFNRGEC heavy 2: QVQLVESGGGLVQPGRSLRLSCAASGFTFSNAWMHWVRQAPGKGLEWVAQIKDRSNQYATYYAPSVKGRFTISRDDSKNSIYLQMNSLKTEDTAVYYCHYVHYAQASTVLPAFGVDAWGQGTTVTVSSASTKGPSVFPLAPSSKSTSGGTAALGCLVKDYFPEPVTVSWNSGALTSGVHTFPAVLQSSGLYSLSSVVTVPSSSLGTQTYICNVNHKPSNTKVDKKVEPKSCDKTHTCPPCPAPEAAGGPSVFLFPPKPKDTLMISRTPEVTCVVVDVSHEDPEVKFNWYVDGVEVHNAKTKPREEQYASTYRVVSVLTVLHQDWLNGKEYKCKVSNKALPAPIEKTISKAKGQPREPQVYTLPPSRCELTKNQVSLSCAVKGFYPSDIAVEWESNGQPENNYKTTPPVLDSDGSFFLVSKLTVDKSRWQQGNVFSCSVMHEALHNHYTQKSLSLSPDYKDDDDK light 2: DIVMTQSPLSLPVTPGEPASISCSTSEELLHINRFIFLHWYQQKPGQAPRLLIYKVANRFMGVPDRFSGSGSGTDFTLKISRVEAEDVGVYYCAQGSQVPFTFGQGTKLEIKRTVAAPSVFIFPPSDEQLKSGTASVVCLLNNFYPREAKVQWKVDNALQSGNSQESVTEQDSKDSTYSLSSTLTLSKADYEKHKVYACEVTHQGLSSPVTKSFNRGEC",13.2%,19.4%,45.8%,73.6%,1480 pg/mL,1570 pg/mL

# Second part, the binder after the results:
"Agonistic activity compared to B, 6 ug/mL","Agonistic activity compared to B, 30 ug/mL","Agonistic activity compared to Ctrl, 6 ug/mL","Agonistic activity compared to Ctrl, 30 ug/mL","hIL-6 (pg/mL), 6 ug/mL antibody","hIL-6 (pg/mL), 30 ug/mL antibody",Binder
-2.21%,1.1%,-7.68%,4.19%,935 pg/mL,944 pg/mL,"GPC3 ERY22-dBBDu_167/L091 (bispecific antibody, human IgG1, kappa, L234A L235A, N297A) heavy 1: DIVMTQSPLSLPVTPGEPASISCRSSQSLVHSNRNTYLHWYQQKPGQAPRLLIYKVSNRFSGVPDRFSGSGSGTDFTLKISRVEAEDVGVYYCSQNTHVPPTFGQGTKLEIKSSASTKGPSVFPLAPSSKSTSGGTAALGCLVKDYFPEPVTVSWNSGALTSGVHTFPAVLQSSGLYSLSSVVTVPSSSLGTQTYICNVNHKPSNTKVDKKVEPKSCDKTHTCPPCPAPEAAGGPSVFLFPPKPKDTLMISRTPEVTCVVVDVSHEDPEVKFNWYVDGVEVHNAKTKPREEQYASTYRVVSVLTVLHQDWLNGKEYKCKVSNKALPAPIEKTISKAKGQPREPQVCTLPPSRDELTKNQVSLWCLVKGFYPSDIAVEWESNGQPENNYKTTPPVLDSDGSFFLYSKLTVDKSRWQQGNVFSCSVMHEALHNHYTQKSLSLSPHHHHHHHH light 1: QVQLVQSGAEVKKPGASVKVSCKASGYTFTDYEMHWIRQPPGQGLEWIGAIDPKTGDTAYSQKFKGRVTLTADKSTSTAYMELSSLTSEDTAVYYCTRFYSYTYWGQGTLVTVSSASVAAPSVFIFPPSDEQLKSGTASVVCLLNNFYPREAKVQWKVDNALQSGNSQESVTEQDSKDSTYSLSSTLTLSKADYEKHKVYACEVTHQGLSSPVTKSFNRGEC heavy 2: QVQLVESGGGLVQPGRSLRLSCAASGFTFSNAWMHWVRQAPGKGLEWVAQIKDKGNLYAAYYAPSVKGRFTISRDDSKNSIYLQMNSLKTEDTAVYYCHYVHYASAGGGLPGFGVDAWGQGTTVTVSSASTKGPSVFPLAPSSKSTSGGTAALGCLVKDYFPEPVTVSWNSGALTSGVHTFPAVLQSSGLYSLSSVVTVPSSSLGTQTYICNVNHKPSNTKVDKKVEPKSCDKTHTCPPCPAPEAAGGPSVFLFPPKPKDTLMISRTPEVTCVVVDVSHEDPEVKFNWYVDGVEVHNAKTKPREEQYASTYRVVSVLTVLHQDWLNGKEYKCKVSNKALPAPIEKTISKAKGQPREPQVYTLPPSRCELTKNQVSLSCAVKGFYPSDIAVEWESNGQPENNYKTTPPVLDSDGSFFLVSKLTVDKSRWQQGNVFSCSVMHEALHNHYTQKSLSLSPDYKDDDDK light 2: DIVMTQSPLSLPVTPGEPASISCSASESLLHNNRHTYLHWYQQKPGQAPRLLIYRVSNRFNGVPDRFSGSGSGTDFTLKISRVEAEDVGVYYCGQGTQVPFTFGQGTKLEIKRTVAAPSVFIFPPSDEQLKSGTASVVCLLNNFYPREAKVQWKVDNALQSGNSQESVTEQDSKDSTYSLSSTLTLSKADYEKHKVYACEVTHQGLSSPVTKSFNRGEC"
13.9%,24.6%,48.3%,93.5%,1500 pg/mL,1750 pg/mL,"GPC3 ERY22-dBBDu_186/L098 (bispecific antibody, human IgG1, kappa, L234A L235A, N297A) heavy 1: DIVMTQSPLSLPVTPGEPASISCRSSQSLVHSNRNTYLHWYQQKPGQAPRLLIYKVSNRFSGVPDRFSGSGSGTDFTLKISRVEAEDVGVYYCSQNTHVPPTFGQGTKLEIKSSASTKGPSVFPLAPSSKSTSGGTAALGCLVKDYFPEPVTVSWNSGALTSGVHTFPAVLQSSGLYSLSSVVTVPSSSLGTQTYICNVNHKPSNTKVDKKVEPKSCDKTHTCPPCPAPEAAGGPSVFLFPPKPKDTLMISRTPEVTCVVVDVSHEDPEVKFNWYVDGVEVHNAKTKPREEQYASTYRVVSVLTVLHQDWLNGKEYKCKVSNKALPAPIEKTISKAKGQPREPQVCTLPPSRDELTKNQVSLWCLVKGFYPSDIAVEWESNGQPENNYKTTPPVLDSDGSFFLYSKLTVDKSRWQQGNVFSCSVMHEALHNHYTQKSLSLSPHHHHHHHH light 1: QVQLVQSGAEVKKPGASVKVSCKASGYTFTDYEMHWIRQPPGQGLEWIGAIDPKTGDTAYSQKFKGRVTLTADKSTSTAYMELSSLTSEDTAVYYCTRFYSYTYWGQGTLVTVSSASVAAPSVFIFPPSDEQLKSGTASVVCLLNNFYPREAKVQWKVDNALQSGNSQESVTEQDSKDSTYSLSSTLTLSKADYEKHKVYACEVTHQGLSSPVTKSFNRGEC heavy 2: QVQLVESGGGLVQPGRSLRLSCAASGFTFSNAWMHWVRQAPGKGLEWVAQIKDRSNQYATYYAPSVKGRFTISRDDSKNSIYLQMNSLKTEDTAVYYCHYVHYAQASTVLPAFGVDAWGQGTTVTVSSASTKGPSVFPLAPSSKSTSGGTAALGCLVKDYFPEPVTVSWNSGALTSGVHTFPAVLQSSGLYSLSSVVTVPSSSLGTQTYICNVNHKPSNTKVDKKVEPKSCDKTHTCPPCPAPEAAGGPSVFLFPPKPKDTLMISRTPEVTCVVVDVSHEDPEVKFNWYVDGVEVHNAKTKPREEQYASTYRVVSVLTVLHQDWLNGKEYKCKVSNKALPAPIEKTISKAKGQPREPQVYTLPPSRCELTKNQVSLSCAVKGFYPSDIAVEWESNGQPENNYKTTPPVLDSDGSFFLVSKLTVDKSRWQQGNVFSCSVMHEALHNHYTQKSLSLSPDYKDDDDK light 2: DIVMTQSPLSLPVTPGEPASISCAASEELVHINRYIFLHWYQQKPGQAPRLLIYKVSNRFIGVPDRFSGSGSGTDFTLKISRVEAEDVGVYYCAQGSQVPFTFGQGTKLEIKRTVAAPSVFIFPPSDEQLKSGTASVVCLLNNFYPREAKVQWKVDNALQSGNSQESVTEQDSKDSTYSLSSTLTLSKADYEKHKVYACEVTHQGLSSPVTKSFNRGEC"
